The results in this text go back to US20140228277A1 (Genentech, published 2014).

B1: BACE032 (peptide)
peptide: Ac-MYCRLLGIGCG-NH2
modifications: disulfide 3-10 (inferred)
B2: BACE057 (peptide)
peptide: Ac-ESMYCALLGIGCG-NH2
modifications: disulfide 5-12 (inferred)
B3: BACE033 (peptide)
peptide: Ac-YCRLLGIGCG-NH2
modifications: disulfide 2-9 (inferred)
B4: SEQ ID NO 89 (peptide)
chain: KEESLYCRLLGLGCG
modifications: not fully specified (C-terminus, bridges); cysteine pairing not given here
notes: not shown: M13 major coat protein; peptide fused to its N-terminus
B5: SEQ ID NO 80 (peptide)
chain: KEESIHCRLLGLGCG
notes: as for B4
B6: SEQ ID NO 78 (peptide)
chain: NDESVYCRLLGIGCG
notes: as for B4
B7: SEQ ID NO 90 (peptide)
chain: TEESIYCRLLGLGCD
notes: as for B4
B8: SEQ ID NO 69 (peptide)
chain: NMESVHCRLLGLGCG
notes: as for B4
B9: SEQ ID NO 76 (peptide)
chain: NGDNMYCRLLGLGCE
modifications: not fully specified (C-terminus, bridges); cysteine pairing not given here
notes: as for B4
B10: SEQ ID NO 92 (peptide)
chain: NEVSLYCRLLDLGCG
modifications: not fully specified (C-terminus, bridges); cysteine pairing not given here
notes: as for B4
B11: SEQ ID NO 71 (peptide)
chain: KEENIYCRLLSLGCS
notes: as for B4
B12: SEQ ID NO 77 (peptide)
chain: DVESVYCRLLGLGCG
modifications: not fully specified (C-terminus, bridges); cysteine pairing not given here
notes: as for B4
B13: SEQ ID NO 81 (peptide)
chain: NVEHIHCRLLGLGCG
modifications: not fully specified (C-terminus, bridges); cysteine pairing not given here
notes: as for B4
B14: SEQ ID NO 73 (peptide)
chain: KEDSMYCRLLGLGCG
modifications: not fully specified (C-terminus, bridges); cysteine pairing not given here
notes: as for B4
B15: SEQ ID NO 94 (peptide)
chain: NDEHMYCRLLGLDCN
modifications: not fully specified (C-terminus, bridges); cysteine pairing not given here
notes: as for B4
B16: SEQ ID NO 86 (peptide)
chain: NEENMYCRLMGIGCG
modifications: not fully specified (C-terminus, bridges); cysteine pairing not given here
notes: as for B4
B17: SEQ ID NO 95 (peptide)
chain: NDENMYCRLLGLGCA
modifications: not fully specified (C-terminus, bridges); cysteine pairing not given here
notes: as for B4
B18: SEQ ID NO 93 (peptide)
chain: NPENNYCRLLNLGCG
notes: as for B4
B19: SEQ ID NO 84 (peptide)
chain: TDESIYCRLLSIACG
modifications: not fully specified (C-terminus, bridges); cysteine pairing not given here
notes: as for B4
B20: SEQ ID NO 85 (peptide)
chain: KEESIYCRLLGHGCG
modifications: not fully specified (C-terminus, bridges); cysteine pairing not given here
notes: as for B4
B21: SEQ ID NO 75 (peptide)
chain: IEESIYCRLLGFGCG
notes: as for B4
B22: SEQ ID NO 82 (peptide)
chain: NDDSLYCRLLGLGCG
modifications: not fully specified (C-terminus, bridges); cysteine pairing not given here
notes: as for B4
B23: SEQ ID NO 70 (peptide)
chain: NEESIYCRLLGLGCG
modifications: not fully specified (C-terminus, bridges); cysteine pairing not given here
notes: as for B4
B24: SEQ ID NO 72 (peptide)
chain: NEESIYCRLLGLACG
modifications: not fully specified (C-terminus, bridges); cysteine pairing not given here
notes: as for B4
B25: SEQ ID NO 83 (peptide)
chain: YEESIYCRLLGIGCG
modifications: not fully specified (C-terminus, bridges); cysteine pairing not given here
notes: as for B4
B26: SEQ ID NO 74 (peptide)
chain: VEESIYCRLLGLGCG
notes: as for B4
B27: SEQ ID NO 91 (peptide)
chain: AEESIYCRLLGLGCG
modifications: not fully specified (C-terminus, bridges); cysteine pairing not given here
notes: as for B4
B28: SEQ ID NO 87 (peptide)
chain: YEESIYCRLLGLGCG
modifications: not fully specified (C-terminus, bridges); cysteine pairing not given here
notes: as for B4
B29: SEQ ID NO 88 (peptide)
chain: HEDHLYCRLLGIGCG
modifications: not fully specified (C-terminus, bridges); cysteine pairing not given here
notes: as for B4
B30: SEQ ID NO 79 (peptide)
chain: TEESLYCRLLGVGCG
modifications: not fully specified (C-terminus, bridges); cysteine pairing not given here
notes: as for B4

Positions of bridges follow the written chain, without caps; N, C: chain ends. No end group written: not given here. Some results are limits rather than exact numbers.

The target of the first test is T1, recombinant human BACE1 (rhBACE1) (human, UniProt P56817 22-457, limits assumed). In words: cell-based or functional assay.
T1 sequence (P56817 22-457 limits assumed): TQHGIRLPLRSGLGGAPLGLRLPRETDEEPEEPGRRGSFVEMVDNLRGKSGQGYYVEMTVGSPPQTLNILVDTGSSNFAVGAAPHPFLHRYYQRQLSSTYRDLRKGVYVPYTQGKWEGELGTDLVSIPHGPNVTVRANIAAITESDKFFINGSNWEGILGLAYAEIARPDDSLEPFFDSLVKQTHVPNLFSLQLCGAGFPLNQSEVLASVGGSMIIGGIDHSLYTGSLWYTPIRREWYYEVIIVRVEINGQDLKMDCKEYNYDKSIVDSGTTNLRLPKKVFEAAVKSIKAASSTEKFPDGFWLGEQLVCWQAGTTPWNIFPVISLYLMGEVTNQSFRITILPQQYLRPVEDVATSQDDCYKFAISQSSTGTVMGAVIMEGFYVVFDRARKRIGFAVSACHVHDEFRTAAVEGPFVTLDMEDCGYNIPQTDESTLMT
For the molecule B1, the “Caliper (MCE) BACE1 activity assay IC50” value amounted to 8.09 µM.

Regarding B2, the “Caliper (MCE) BACE1 activity assay IC50” value is > 10 µM.

Turning to B3, the “Caliper (MCE) BACE1 activity assay IC50” value was 10.9 µM.

The target in a further test is T1, recombinant human BACE1 (rhBACE1). In words: spot phage ELISA, plate-immobilized BACE1 against BSA.
B4: the “fold improvement of signal/noise ratio over parent BACE017” value (from here on “fold improvement of signal/noise ratio”) is > 5 fold.

B5: the “fold improvement of signal/noise ratio” value was > 5 fold.

For B6, the “fold improvement of signal/noise ratio” value was > 5 fold.

Take B7: the “fold improvement of signal/noise ratio” value was > 5 fold.

As to B8, the “fold improvement of signal/noise ratio” value is > 5 fold.

As for B9, the “fold improvement of signal/noise ratio” value was > 5 fold.

With B10, the “fold improvement of signal/noise ratio” value was > 5 fold.

In the case of B11, the “fold improvement of signal/noise ratio” value was > 5 fold.

Consider B12, for which the “fold improvement of signal/noise ratio” value is > 5 fold.

As to B13, the “fold improvement of signal/noise ratio” value was > 5 fold.

Take B14: the “fold improvement of signal/noise ratio” value was > 5 fold.

As for B15, the “fold improvement of signal/noise ratio” value is > 5 fold.

As to B16, the “fold improvement of signal/noise ratio” value is > 5 fold.

With B17, the “fold improvement of signal/noise ratio” value was > 5 fold.

For B18, the “fold improvement of signal/noise ratio” value is > 5 fold.

Regarding B19, the “fold improvement of signal/noise ratio” value was > 5 fold.

On to B20, for which the “fold improvement of signal/noise ratio” value was > 5 fold.

For B21, the “fold improvement of signal/noise ratio” value was > 5 fold.

On to B22, for which the “fold improvement of signal/noise ratio” value is > 5 fold.

B23: the “fold improvement of signal/noise ratio” value is > 5 fold.

As for B24, the “fold improvement of signal/noise ratio” value was > 5 fold.

On to B25, for which the “fold improvement of signal/noise ratio” value was > 5 fold.

For B26, the “fold improvement of signal/noise ratio” value was > 5 fold.

Take B27: the “fold improvement of signal/noise ratio” value is > 5 fold.

Regarding B28, the “fold improvement of signal/noise ratio” value is > 5 fold.

For the molecule B29, the “fold improvement of signal/noise ratio” value is > 5 fold.

Take B30: the “fold improvement of signal/noise ratio” value is > 5 fold.
